The values below are quoted from earlier work in PMC11283454 (Nature Communications, 2024).

B1: scATE1: Saccharomyces cerevisiae ATE1 (protein, UniProt P16639 1-503, looked up)
Arginyl-tRNA--protein …: MSDRFVIWAPSMHNEPAAKCGYCHGNKGGNMDQLFALDSWAHRYMNKMDVVKIENCTIGSFVEHMDVATYDRMCNMGFRRSGKFLYKVDPLRNCCRLYTIRTAPQELNMTKELKKCISRFATRITSEDYCPAAVASSDFVGKIVNAEMNSKTFYTRFEPALYSEEKYHLFVKYQEKVHQDYNNSPKSFKRFLCDTPFGPEAVLGTQESWEQLNNWQRMKPGEKLKHMGPVHECYYYEGKLIAITVSDILPSGISSVYFIWDPDYSKWSLGKLSALRDLAIIQRTNLQYYYLGYYIEDCPKMNYKANYGAEVLDVCHSKYIPLKPIQDMISRGKLFVIGEEETKVTKELYLVDSETGRGEGFPTDNVVKYKNIAEEIYGVGGCAFKSANESALELKELYGIPYEEEDLDTIYHLKEHNGHAPNGIPNVVPGLLPLWELLDIMQSGKITDLEGRLFLFEIETEGIRPLINFYSEPPNVKKRICDVIRLFGFETCMKAVILYSEQM
B1: the “Tm of scATE1” value was ~ 46 °C.
